We go through ten molecules from patent US20240166765A1 (ICONIC THERAPEUTICS, published 2024).

Assay in all cases: cell-based or functional assay
Assay [1] concerns the target human Tissue Factor on MDA-MB-231 cells (human, UniProt P13726 33-295).
Assay [2] concerns the target human Tissue Factor (hTF), endogenously expressed on human TF-positive cells (human, UniProt P13726 33-295).
The target in a further assay is Relipidated TF (UniProt P13726 33-295, limits assumed).

Changes are numbered by the printed parent chain.

B1: 25G1 (antibody, human IgG1, kappa, V domains shown)
VH: QVQLVQSGAEVKKPGASVKVSCKASGYTFRSYGISWVRQAPGQGLEWMGWVAPYSGNTNYAQKLQGRVTMTTDTSTSTAYMELRSLRSDDTAVYYCARDAGTYSPYGYGMDVWGQGTTVTVSS
VL: DIQMTQSPSTLSASVGDRVTITCRASHSIDSWLAWYQQKPGKAPKLLIYKASYLESGVPSRFSGSGSGTEFTLTISSLQPDDFATYYCQLFQSLPPFTFGGGTKVEIKR
On to B1, for which, in assay [1], the “% IL8, 2.56 nM Ab” value came out at 46%; the “% IL8, 6.4 nM Ab” value is 12%; the “% IL8, 16 nM Ab” value came to 9%; the “% IL8, 40 nM Ab” value turned out to be 8%. Further, the “% IL8, 100 nM Ab” value in assay [1] was 9%.

B2: anti-TF antibody 25A5 (antibody, human IgG1, kappa, V domains shown)
VH: B1 VH with R30D, S31V, V51I, Y106F
VL: B1 VL with H27E, D30S, S31N, S52Y, Y53S, S56Y, L90Q, S93K
Consider B2, for which, in assay [2], the “% GM-CSF, 2.56 nM antibody, MDA-MB-231 cells + FVIIa” value worked out at 72% and the “% GM-CSF, 6.4 nM antibody, MDA-MB-231 cells + FVIIa” value worked out at 18%.

B3: 25G9 (antibody, human IgG1, kappa, V domains shown)
VH: B1 VH
VL: B1 VL with R24Q, H27Q, K50S, L90R
B3: in assay [1], the “% IL8, 2.56 nM Ab” value was 51%; the “% IL8, 16 nM Ab” value stood at 15%; the “% IL8, 40 nM Ab” value was 14%; the “% IL8, 100 nM Ab” value was 13%.

B4: 25A3 (antibody, human IgG1, kappa, V domains shown)
VH: B1 VH with R30D, S31V, V51I, Y106F
VL: B1 VL with R24Q, H27Q, D30N, S31N, S52Y, Y53N
For B4, in assay [1], the “% IL8, 2.56 nM Ab” value stood at 47%; the “% IL8, 6.4 nM Ab” value came to 9%; the “% IL8, 16 nM Ab” value was 8%; the “% IL8, 40 nM Ab” value stood at 8%. Moreover, the “% IL8, 100 nM Ab” value in assay [1] was 8%.

B5: 25A5 (antibody, human IgG1, kappa, V domains shown)
VH: B1 VH with R30D, S31V, V51I, Y106F
VL: B1 VL with H27E, D30S, S31N, S52Y, Y53S, S56Y, L90Q, S93K
As to B5, in assay [1], the “% IL8, 2.56 nM Ab” value was found to be 70%; the “% IL8, 16 nM Ab” value was determined as 7%; the “% IL8, 40 nM Ab” value stood at 7%.

B6: 54E (antibody, human IgG1, V domains shown)
VH: QVQLVQSGAEVKKPGASVKVSCKASGYTFANYYMHWVRQAPGQGLEWMGIINPSGGITVYAQKFQGRVTMTRDTSTSTVYMELSSLRSEDTAVYYCARGGSKVAALAFDIWGQGTMVTVSS
VL: DIQMTQSPSSLSASVGDRVTITCQASQDISNSLNWYQQKPGKAPKLLIYDASNLETGVPSRFSGSRSGTDFTFTISSLQPEDIATYYCQQYNFHPLTFGGGTKVEIK
With B6, in the assay with Relipidated TF, the “% ETP, TGA 10 min pre-incubation, 10 nM Ab” value was 83%; the “% Peak IIa, TGA […] min pre-incubation, 10 nM Ab” value (from here on “% Peak IIa, TGA … 10 nM Ab”) stood at 43%; the “% Peak IIa, TGA […] min pre-incubation, 50 nM Ab” value (shortened to “% Peak IIa, TGA … 50 nM Ab”) was determined as 16%; the “% Peak IIa, TGA […] min pre-incubation, 100 nM Ab” value (“% Peak IIa, TGA … 100 nM Ab” below) was found to be 13%. Also, in the assay with Relipidated TF, the “% ttPeak, TGA 10 min pre-incubation, 10 nM Ab” value (shortened to “% ttPeak … 10 nM Ab”) is 96%; the “% ttPeak, TGA 10 min pre-incubation, 50 nM Ab” value (“% ttPeak … 50 nM Ab” for short) is 303%; the “% ttPeak, TGA 10 min pre-incubation, 100 nM Ab” value (“% ttPeak … 100 nM Ab” below) was determined as 371%; the “ETP, TGA 10 min pre-incubation, 10 nM Ab” value came out at 1520 nM·min. Besides, in the assay with Relipidated TF, the “Lag Time, TGA 10 min pre-incubation, 10 nM Ab” value (“Lag Time … 10 nM Ab” below) was 6.5 min; the “Lag Time, TGA 10 min pre-incubation, 50 nM Ab” value (shortened to “Lag Time … 50 nM Ab”) came to 18.3 min; the “Lag Time, TGA 10 min pre-incubation, 100 nM Ab” value (“Lag Time … 100 nM Ab” for short) is 22.3 min; the “Peak IIa, TGA […] min pre-incubation, 10 nM Ab” value turned out to be 121 nM. Further, in the assay with Relipidated TF, the “Peak IIa, TGA […] min pre-incubation, 50 nM Ab” value amounted to 44 nM; the “Peak IIa, TGA […] min pre-incubation, 100 nM Ab” value came to 37 nM; the “ttPeak, TGA 10 min pre-incubation, 10 nM Ab” value stood at 13.7 min; the “ttPeak, TGA 10 min pre-incubation, 50 nM Ab” value came to 28.2 min. For the same molecule, the “ttPeak, TGA 10 min pre-incubation, 100 nM Ab” value with Relipidated TF turned out to be 33 min.

B7: 43B (antibody, V domains shown)
VH: QVQLQESGPGLVKPSQTLSLTCTVSGGSISSGQYWSWIRQHPGKGLEWIGEIYYSGSTRYNPSLKSRVTISVDTSKNQFSLKLSSVTAADTAVYYCARDAPYYYGGGYYYYMDVWGKGTTVTVSS
VL: EIVLTQSPGTLSLSPGERATLSCRASQSVSSSYLAWYQQKPGQAPRLLIYGASSRATGIPDRFSGSGSGTDFTLTISRLEPEDFAVYYCQQVGVVPYTFGGGTKVEIK
For the molecule B7, in assay [1], the “% IL8, 2.56 nM Ab” value stood at 50%; the “% IL8, 16 nM Ab” value amounted to 5%; the “% IL8, 40 nM Ab” value came to 4%; the “% IL8, 100 nM Ab” value turned out to be 4%.

B8: 43B7 (antibody, V domains shown)
VH: B7 VH
VL: B7 VL with Q27E, S30D, S53D, V92D
With B8, in assay [1], the “% IL8, 2.56 nM Ab” value was 55%; the “% IL8, 6.4 nM Ab” value came to 15%; the “% IL8, 16 nM Ab” value came to 8%; the “% IL8, 40 nM Ab” value stood at 4%. Besides, in assay [1], the “% IL8, 100 nM Ab” value worked out at 4%.

B9: 5G9 (humanized TF8-5G9, CNTO 860) (antibody, V domains shown)
VH: QVQLVESGGGVVQPGRSLRLSCKASGFNIKDYYMHWVRQAPGKGLEWIGLIDPENGNTIYDPKFQGRFTISADNSKNTLFLQMDSLRPEDTAVYYCARDNSYYFDYWGQGTPVTVSS
VL: DIQMTQSPSSLSASVGDRVTITCKASQDIRKYLNWYQQKPGKAPKLLIYYATSLADGVPSRFSGSGSGTDYTFTISSLQPEDIATYYCLQHGESPYTFGQGTKLEIT
Consider B9, for which, in the assay with Relipidated TF, the “% Peak IIa, TGA … 10 nM Ab” value came out at 11%; the “% Peak IIa, TGA … 50 nM Ab” value is 8%; the “% Peak IIa, TGA … 100 nM Ab” value stood at 8%; the “% ttPeak … 10 nM Ab” value is 314%. In addition, in the assay with Relipidated TF, the “% ttPeak … 50 nM Ab” value came out at 386%; the “% ttPeak … 100 nM Ab” value was determined as 436%; the “Lag Time … 10 nM Ab” value came out at 19.3 min; the “Lag Time … 50 nM Ab” value worked out at 23.6 min. In addition, in the assay with Relipidated TF, the “Lag Time … 100 nM Ab” value amounted to 26.7 min; the “Peak IIa, TGA […] min pre-incubation, 10 nM Ab” value is 30 nM; the “Peak IIa, TGA […] min pre-incubation, 50 nM Ab” value came to 23 nM; the “Peak IIa, TGA […] min pre-incubation, 100 nM Ab” value is 22 nM. For the same molecule, in the assay with Relipidated TF, the “ttPeak, TGA 10 min pre-incubation, 10 nM Ab” value is 29 min; the “ttPeak, TGA 10 min pre-incubation, 50 nM Ab” value is 34 min; the “ttPeak, TGA 10 min pre-incubation, 100 nM Ab” value amounted to 37.5 min.

B10: 39A (antibody, human IgG1, V domains shown)
VH: QVQLVQSGAEVKKPGSSVKVSCKASGGTFSSNAIGWVRQAPGQGLEWMGSIIPIIGFANYAQKFQGRVTITADESTSTAYMELSSLRSEDTAVYYCARDSGYYYGASSFGMDVWGQGTTVTVSS
VL: EIVMTQSPATLSVSPGERATLSCRASQSVSSNLAWYQQKPGQAPRLLIYGASTRATGIPARFSGSGSGTEFTLTISSLQSEDFAVYYCEQYNNLPLTFGGGTKVEIK
For the molecule B10, in the assay with Relipidated TF, the “% ETP, TGA 10 min pre-incubation, 10 nM Ab” value worked out at 0%; the “% Peak IIa, TGA … 10 nM Ab” value amounted to 13%; the “% Peak IIa, TGA … 50 nM Ab” value stood at 8%; the “% Peak IIa, TGA … 100 nM Ab” value came out at 7%. Besides, in the assay with Relipidated TF, the “% ttPeak … 10 nM Ab” value came out at 319%; the “% ttPeak … 50 nM Ab” value stood at 491%; the “% ttPeak … 100 nM Ab” value is 537%; the “Lag Time … 10 nM Ab” value was 19.6 min. In the assay with Relipidated TF, the “Lag Time … 50 nM Ab” value was 30.7 min; the “Lag Time … 100 nM Ab” value was determined as 33.6 min; the “Peak IIa, TGA […] min pre-incubation, 10 nM Ab” value was determined as 36 nM; the “Peak IIa, TGA […] min pre-incubation, 50 nM Ab” value was 22 nM. Moreover, in the assay with Relipidated TF, the “Peak IIa, TGA […] min pre-incubation, 100 nM Ab” value amounted to 19 nM; the “ttPeak, TGA 10 min pre-incubation, 10 nM Ab” value was found to be 29.3 min; the “ttPeak, TGA 10 min pre-incubation, 50 nM Ab” value was determined as 41.4 min; the “ttPeak, TGA 10 min pre-incubation, 100 nM Ab” value came to 44.6 min.
